B1: mRNA-splicing (parent)
chain: AGUUGCUGCUGGGAGCUCCAGCACAGUGAAAUGGACAGAAGGGCAGAGCAA

Variants of: B1
Assay: exon inclusion enrichment index; higher = more inclusion; WT1 exon 5 minigene, HEK293

Point of comparison: G5A U7C G8A U10C A31U, “exon inclusion enrichment index” value 2.07. Against it:
- G5A U7C G8A U10C A14G — lower, 1.38
- G5A U7C G8A U10C A14U — lower, 0.895
- G5A U7C G8A U10C A14C — lower, 1.69
- G5A U7C G8A U10C A45C — higher, 2.28
- G5A U7C G8A U10C A45U — higher, 2.8
- G5A U7C G8A U10C A45G — higher, 3.76
- G5A U7C G8A U10C G11U G12C — lower, 0.738
- G5A U7C G8A U10C G11U G12A — lower, 0.117
- G5A U7C G8A U10C G11U G12U — lower, 0.337
- G5A U7C G8A U10C G26C U27G — higher, 3.53
- G5A U7C G8A U10C G26C U27C — higher, 3.74
- G5A U7C G8A U10C G26C U27A — higher, 2.48
- G5A U7C G8A U10C C44G A45G — lower, 0.315
- G5A U7C G8A U10C C44G A45U — lower, 1.92
- G5A U7C G8A U10C C44G A45C — higher, 3.34
- G5A U7C G8A U10C C18A C19A — lower, 0.451
- G5A U7C G8A U10C C18A C19U — lower, 0.0739
- G5A U7C G8A U10C C18A C19G — lower, 0.297
- G5A U7C G8A U10C A47G — lower, 0.395
- G5A U7C G8A U10C A47U — lower, 2
- G5A U7C G8A U10C A47C — higher, 2.83
- G5A U7C G8A U10C C22G A23U — lower, 0.522
- G5A U7C G8A U10C C22G A23C — lower, 1.24
- G5A U7C G8A U10C C22G A23G — lower, 1.4
- G5A U7C G8A U10C A25G G26C — higher, 3.84
- G5A U7C G8A U10C A25G G26A — higher, 4.73
- G5A U7C G8A U10C A25G G26U — higher, 3.09
- G5A U7C G8A U10C G28A A29G — lower, 1.02
- G5A U7C G8A U10C G28A A29C — lower, 1.44
- G5A U7C G8A U10C G28A A29U — lower, 0.513
- G5A U7C G8A U10C A37G — higher, 3.3
- G5A U7C G8A U10C A37U — lower, 1.97
- G5A U7C G8A U10C A37C — higher, 3.08
- G5A U7C G8A U10C G12U — lower, 1.13
- G5A U7C G8A U10C G12C — lower, 1.57
- G5A U7C G8A U10C G12A — lower, 1.48
- G5A U7C G8A U10C A40U — lower, 1.97
- G5A U7C G8A U10C A40G — lower, 1.93
- G5A U7C G8A U10C A40C — higher, 2.82
- G5A U7C G8A U10C G26U U27C — higher, 3.63
- G5A U7C G8A U10C G26U U27G — higher, 3.47
- G5A U7C G8A U10C G26U U27A — lower, 1.08
- G5A U7C G8A U10C A31C — higher, 2.89
- G5A U7C G8A U10C A31G — higher, 2.95
- G5A U7C G8A U10C A39C A40G — higher, 2.18
- G5A U7C G8A U10C A39C A40U — lower, 1.28
- G5A U7C G8A U10C A39C A40C — higher, 3.03
- G5A U7C G8A U10C A30U — lower, 1.71
- G5A U7C G8A U10C A30C — higher, 2.51
- G5A U7C G8A U10C A30G — higher, 2.36
- G5A U7C G8A U10C C44U A45U — lower, 1.51
- G5A U7C G8A U10C C44U A45C — higher, 3.16
- G5A U7C G8A U10C C44U A45G — lower, 1.53
- G5A U7C G8A U10C A31G U32C — higher, 4.44
- G5A U7C G8A U10C A31G U32G — lower, 1.52
- G5A U7C G8A U10C A31G U32A — higher, 4.37
- G5A U7C G8A U10C A23G — higher, 3.56
- G5A U7C G8A U10C A23U — lower, 1.81
- G5A U7C G8A U10C A23C — lower, 1.89
- G5A U7C G8A U10C A40U G41C — higher, 3.14
- G5A U7C G8A U10C A40U G41U — lower, 1.26
- G5A U7C G8A U10C A40U G41A — lower, 0.108
- G5A U7C G8A U10C C36U A37U — lower, 1.38
- G5A U7C G8A U10C C36U A37C — lower, 1.63
- G5A U7C G8A U10C C36U A37G — higher, 2.16
- G5A U7C G8A U10C A23G C24U — lower, 0.823
- G5A U7C G8A U10C A23G C24G — higher, 3.83
- G5A U7C G8A U10C A23G C24A — higher, 3.5
- G5A U7C G8A U10C A14U G15U — lower, 0.953
- G5A U7C G8A U10C A14U G15A — lower, 0.514
- G5A U7C G8A U10C A14U G15C — lower, 1.01
- G5A U7C G8A U10C C36G A37G — lower, 0.405
- G5A U7C G8A U10C C36G A37U — lower, 1.08
- G5A U7C G8A U10C C36G A37C — lower, 0.667
- G5A U7C G8A U10C A47C G48U — higher, 2.34
- G5A U7C G8A U10C A47C G48C — lower, 2.06
- G5A U7C G8A U10C A47C G48A — lower, 1.74
- G5A U7C G8A U10C G33A — lower, 0.235
- G5A U7C G8A U10C G12U G13C — lower, 0.477
- G5A U7C G8A U10C G12U G13A — lower, 0.238
- G5A U7C G8A U10C G12U G13U — lower, 0.053
- G5A U7C G8A U10C A40C G41A — lower, 0.979
- G5A U7C G8A U10C A40C G41U — lower, 1.28
- G5A U7C G8A U10C A40C G41C — higher, 3.47
- G5A U7C G8A U10C C24G A25U — higher, 2.8
- G5A U7C G8A U10C C24G A25C — higher, 3.54
- G5A U7C G8A U10C C24G A25G — lower, 1.35
- G5A U7C G8A U10C C19U A20G — lower, 0.888
- G5A U7C G8A U10C C19U A20U — lower, 0.734
- G5A U7C G8A U10C C19U A20C — lower, 1.64
- G5A U7C G8A U10C G11A G12A — lower, 0.934
- G5A U7C G8A U10C G11A G12C — lower, 0.699
- G5A U7C G8A U10C G11A G12U — lower, 0.486
- G5A U7C G8A U10C G12A G13C — lower, 0.711
- G5A U7C G8A U10C G12A G13U — lower, 0.132
- G5A U7C G8A U10C G12A G13A — lower, 0.689
- G5A U7C G8A U10C A40G G41A — lower, 1.12
- G5A U7C G8A U10C A40G G41U — lower, 1.79
- G5A U7C G8A U10C A40G G41C — higher, 3.76
- G5A U7C G8A U10C A35C C36G — lower, 2.06
- G5A U7C G8A U10C A35C C36A — lower, 1.46
- G5A U7C G8A U10C A35C C36U — lower, 0.244
- G5A U7C G8A U10C G13U A14G — lower, 0.535
- G5A U7C G8A U10C G13U A14C — lower, 1.41
- G5A U7C G8A U10C G13U A14U — lower, 1.08
- G5A U7C G8A U10C G28C A29G — higher, 3.25
- G5A U7C G8A U10C G28C A29U — lower, 1.13
- G5A U7C G8A U10C G28C A29C — lower, 1.72
- G5A U7C G8A U10C A47U G48A — lower, 1.85
- G5A U7C G8A U10C A47U G48U — lower, 1.85
- G5A U7C G8A U10C A47U G48C — lower, 1.6
- G5A U7C G8A U10C G26U — higher, 2.46
- G5A U7C G8A U10C G26C — higher, 2.46
- G5A U7C G8A U10C G26A — higher, 3.08
- G5A U7C G8A U10C A23U C24G — higher, 2.69
- G5A U7C G8A U10C A23U C24A — lower, 1.02
- G5A U7C G8A U10C A23U C24U — lower, 0.272
- G5A U7C G8A U10C G12C G13C — lower, 0.397
- G5A U7C G8A U10C G12C G13U — lower, 0.139
- G5A U7C G8A U10C G12C G13A — lower, 0.95
- G5A U7C G8A U10C C18G C19G — higher, 2.62
- G5A U7C G8A U10C C18G C19A — higher, 2.92
- G5A U7C G8A U10C C18G C19U — lower, 0.528
- G5A U7C G8A U10C A30U A31U — lower, 1.86
- G5A U7C G8A U10C A30U A31G — higher, 2.36
- G5A U7C G8A U10C A30U A31C — higher, 2.13
- G5A U7C G8A U10C C18A — lower, 1.35
- G5A U7C G8A U10C C18G — higher, 2.35
- G5A U7C G8A U10C C18U — lower, 1.67
- G5A U7C G8A G11U — lower, 1.23
- G5A U7C G8A G11A — lower, 0.186
- G5A U7C G8A G11C — lower, 1.3
- G5A U7C G8A U10C C16U U17C — lower, 1.33
- G5A U7C G8A U10C C16U U17G — lower, 0.815
- G5A U7C G8A U10C C16U U17A — lower, 1.74
- G5A U7C G8A U10C A37U G38C — lower, 1.52
- G5A U7C G8A U10C A37U G38U — lower, 0.601
- G5A U7C G8A U10C A37U G38A — lower, 0.876
- G5A U7C G8A U10C C22A A23U — higher, 2.17
- G5A U7C G8A U10C C22A A23G — higher, 2.59
- G5A U7C G8A U10C C22A A23C — higher, 3.53
- G5A U7C G8A U10C A31C U32G — higher, 2.85
- G5A U7C G8A U10C A31C U32C — higher, 3.58
- G5A U7C G8A U10C A31C U32A — lower, 1.81
- G5A U7C G8A U10C G28U A29C — lower, 1.47
- G5A U7C G8A U10C G28U A29U — lower, 0.443
- G5A U7C G8A U10C G28U A29G — the same, 2.07
- G5A U7C G8A U10C G11C — lower, 1.96
- G5A U7C G8A U10C G11A — lower, 1.34
- G5A U7C G8A U10C G11U — lower, 1.6
- G5A U7C G8A U10C G21U C22G — higher, 2.27
- G5A U7C G8A U10C G21U C22A — lower, 0.951
- G5A U7C G8A U10C G21U C22U — lower, 0.857
- G5A U7C G8A U10C A30G A31C — lower, 0.305
- G5A U7C G8A U10C A30G A31U — lower, 0.691
- G5A U7C G8A U10C A30G A31G — lower, 0.823
- G5A U7C G8A U10C A39C — lower, 0.541
- G5A U7C G8A U10C A39G — lower, 1.33
- G5A U7C G8A U10C A39U — lower, 0.113
- G5A U7C G8A U10C A29C A30G — higher, 3.21
- G5A U7C G8A U10C A29C A30U — lower, 1.35
- G5A U7C G8A U10C A29C A30C — higher, 2.73
- G5A U7C G8A U10C A37C G38C — higher, 2.35
- G5A U7C G8A U10C A37C G38A — lower, 2.05
- G5A U7C G8A U10C A37C G38U — lower, 1.6
- G5A U7C G8A U10C A14C G15C — lower, 0.761

Reference: the RNAGym collection of RNA variant scans (doi:10.1101/gr.219683.116)
